Read-outs that look alike come from different tables or passages of the source.
What was measured:
[1] = target: T1, mtSSB (Homo sapiens, UniProt Q04837 15-148); experiment: EMSA
T1 sequence: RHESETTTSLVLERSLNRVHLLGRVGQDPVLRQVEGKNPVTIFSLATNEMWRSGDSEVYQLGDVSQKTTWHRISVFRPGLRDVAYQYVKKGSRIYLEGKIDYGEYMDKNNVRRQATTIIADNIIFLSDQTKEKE

[2] = target: T1, mtSSB; experiment: EMSA; remark: listed apart in the source

AGAACCTGTTGAACAAAAGC (ssDNA) [20 nt ssDNA probe]
binding result [1]: binds

AGAACCUGUUGAACAAAAGC (ssRNA) [20 nt RNA probe]
binding result [2]: binds

Source: article PMC6468249
